From patent US20190367607A1 (DUKE UNIVERSITY, published 2019)

B1: HB22-103 (antibody, V domains shown)
VH: QVQLQQPGTELVKPGASVKLSCKASGYTFTSYWMHWVKQRPGQGLEWIGMIHPNRGTTNYNEKFKSKATLTVDKSSSTAYMQLSSLTSEDSAVYYCARYYDYDPDYWGQGTTLTVSS
VL: DIVLTQSPATLSVTPGDSVSLSCRASQSISNNLHWFQQKSHESPRLLIKYGYQSISGIPSRFSGSGSGTDFTLSINSVETEDFGMYFCQQSYRWPYTFGGGTKLEIK
notes: also called HB22-103 mAb; HB22 mAb
B2: HB22-115 (antibody, V domains shown)
VH: QVQLQQPGAELVKPGASVKLSCKASGYTFTSYWMHWVKQRPGQGLEWIGMIHPNSGSTNYSEKFKSKATLTVDKSSSTAYMQLSSLTSEDSAVYYCARYYDYDPDYWGQGTTLTVSS
VL: DIVLTQSPATLSVTPGDSVTLSCRASQGISNNLHWYQQQSHESPRLLIKFTSQSVSGIPSRFSGSGSGTDFTLSVNSVETEDFGMYFCQQSNRWPYTFGGGTKLEIK
notes: Mouse IgG1 monoclonal antibody to human CD22; also called HB22-115 mAb; HB22 mAb
B3: HB22-107 (antibody, V domains shown)
VH: DVKLVESGEGLVKPGGSLKLSCAASGFTFSSYAMSWVRQTPEKRLEWVAYITSGGDYIYYADTVKGRFTISRDDARNTLYLQMSSLKSEDTAMYYCTRDQGYYYDGRPTWFAYWGQGTLVTVSA
VL: DIVMIQSPSSLAMSVGQKVTMRCKSSQSLLSSSNQKNYLAWYQQKPGQSPKLLVYFASTRESGVPDRFIGSGSGTDFTLTINSVQAEDLADYFCQQHYSTPLTFGAGTKLELK
notes: Mouse IgG1 monoclonal antibody to human CD22; also called HB22-107 mAb; HB22 mAb

molecular target: T1, human CD22 on B cells of hCD22-Tg+/+ mCD22-/- transgenic mice (human, UniProt P20273 20-847); experiment: flow cytometry of blood B220+ B cells from hCD22-Tg mice 7 days after mAb injection, stained with anti-mouse IgG1
T1 construct: whole, on cells; Expressed from the human CD22 gene with its endogenous regulatory elements
Experimental: FIGS. 20A-20B are a set of histograms and scatter plots showing B10 cell-depleting mAbs in hCD22-Tg mice bind B220⁺B cells. Blood lymphocytes isolated from hCD22-Tg mice given either HB22-103, HB22-107, HB22-115 or an isotype-matched (IgG1) mAb (250 μg/mouse) 7 days earlier in FIG. 16 were assessed for relative HB22 mAb binding by immunofluorescence staining with fluorochrome-conjugated anti-mouse IgG1 isotype-specific antibody. […] Bars indicate means, with significant differences between group means indicated: **, p<0.01; ***, p<0.001.

Binder | binding result
B1 | binds
B2 | binds
B3 | binds
